Source: patent publication US20240181022A1, “AMURINS LYSINS, AND LYSIN-ANTIMICROBIAL PEPTIDE (AMP) CONSTRUCTS ACTIVE AGAINST GRAM-NEGATIVE BACTERIA” (priority 2021, published 2024)
Like-named read-outs stand apart in the source and are kept apart here. Where no end group is shown, it is not given here. [ ]: non-standard residue; d: D form.

How the values were obtained:
A. dolens = type: cell-based, Achromobacter dolens
Procedure: (§1) The MBEC (after 2-hour treatments) was determined as described in Jones and Wozniak, PsI Produced by Mucoid Pseudomonas aeruginosa Contributes to the Establishment of Biofilms and Immune Evasion, Am. Soc. Microbiol. 2017, 8(3):e00864-17. Meropenem and tobramycin were included as controls and were both poorly active, with MBEC90 values of >256 μg/mL (data not shown).

S. maltophilia [1] = test: Serial passage resistance development study, S. maltophilia; type: cell-based, Stenotrophomonas maltophilia; details: S. maltophilia, day 28, triplicate
S. maltophilia [2] = details: for antibiofilm activity (MBEC) against S. maltophilia: 2-hour treatments
Procedure: (§2) Biofilms are then washed and treated with e.g., a 2-fold dilution series of the lysin in TSBg at e.g., 37° C. for 24 hours. After treatment, wells are washed, air-dried at e.g., 37° C. and stained with e.g., 0.05% crystal violet for 10 minutes.
(§3) The antibiofilm activity of GN370, AM1, AM2, and AM3 was evaluated against various Gram-negative bacteria prevalent in cystic fibrosis patients, including P. aeruginosa, S. maltophilia, and A. xylosoxidans.
(§4) The MBEC (after 2-hour treatments) was determined as described in Jones and Wozniak, PsI Produced by Mucoid Pseudomonas aeruginosa Contributes to the Establishment of Biofilms and Immune Evasion, Am. […] Microbiol.

B. multivorans = system: B. multivorans
Procedure: as §2, §3, §4

A. xylosoxidans [3] = system: A. xylosoxidans
Procedure: as §2, §3, §4

A. xylosoxidans [4] = test: Time-kill assay in cystic fibrosis patient sputum, A. xylosoxidans; type: cell-based, Achromobacter xylosoxidans; details: for effect of sputum on antibacterial activity: 10% CF sputum vs no sputum
Description: (§5) Sputum from 5 cystic fibrosis patients was pooled. The resulting mixture was not filtered, as it was very dense and not amenable to sterilization by filtration. Sputum is known to be a complex mixture of DNA, carbohydrates, and lipids ([…], 2016). As used herein, the term “sputum” refers to the mucus present in the respiratory tract of an animal, such as a human. Sputum may increase in thickness due to the irritation or infection, including bacterial infection, and in some instances, may be expelled by the animal while coughing. In certain instances, cystic fibrosis may be characterized by the presence of a thick, sticky mucus or sputum present in the lungs of cystic fibrosis patients. The activity of GN370, AM1, AM2, AM3, and meropenem was determined in the sputum using a time-kill assay format as disclosed in Zhang et al., Antimicrobial peptide therapeutics for cystic fibrosis, Antimicrobial Agents Chemother. 2005; 49(7):2921-2927. […] Untreated controls were included in addition to pretreatment plating (t=0) for a baseline CFU determination. Activity was also determined in the absence of sputum for comparison to activity observed in the presence of sputum.

A. ruhlandii [5] = test: MIC by broth microdilution against A. ruhlandii; type: cell-based, Achromobacter ruhlandii; details: A. ruhlandii isolates
Procedure: (§6) MIC values were determined using a modification of the standard broth microdilution reference method defined by the Clinical and Laboratory Standards Institute (CLSI), CLSL. 2015. Methods for Dilution Antimicrobial Susceptibility Tests for Bacteria That Grow Aerobically; Approved Standard-10th Edition. Clinical and Laboratory Standards Institute, Wayne, PA. The modification was based on the replacement of Mueller Hinton Broth with either CAA media (with and without NaCl) or CAA supplemented with 2.5% human serum. MIC is the minimum concentration of peptide sufficient to suppress at least 80% of the bacterial growth compared to control.
(§7) Based on these nine most prevalent strains, direct lytic agents, including GN370, AM1, AM2, and AM3, were evaluated against various isolates from each of the 9 strains. MICs and MBECs (Example 3) were determined, and a sputum inhibition test was conducted, as described below in Example 5.
(§8) The MICs for were determined as described below using the broth microdilution method for meropenem, GN370, AM1, AM2, and AM3. The results are shown below in Tables 8-12.

M. avium = test: MIC against M. avium; type: cell-based, Mycobacterium avium; details: M. avium (ATCC 700898); CAAT media
P. aeruginosa [6] = details: for antibiofilm activity (MBEC) against P. aeruginosa: 2-hour treatments
M. fortuitum = test: MIC against M. fortuitum; type: cell-based, Mycobacterium fortuitum; details: M. fortuitum (ATCC 6841); CAAT media
M. scrofulaceum = test: MIC against M. scrofulaceum; type: cell-based, Mycobacterium scrofulaceum; details: M. scrofulaceum (ATCC 19981); CAAT media
P. aeruginosa [7] = test: Serial passage resistance development study, P. aeruginosa; type: cell-based, Pseudomonas aeruginosa; details: for change in MIC over serial passage: P. aeruginosa strain CFS 1292, Day 28
A. ruhlandii [8] = type: cell-based, Achromobacter ruhlandii
Procedure: as §1

P. aeruginosa [9] = test: Time-kill assay in cystic fibrosis patient sputum, P. aeruginosa; type: cell-based, Pseudomonas aeruginosa; details: for effect of sputum on antibacterial activity: 10% CF sputum vs no sputum
Description: as §5

Mycobacterium species = type: cell-based
B. gladioli [10] = test: MIC by broth microdilution against B. gladioli; type: cell-based, Burkholderia gladioli; details: B. gladioli isolates
Procedure: as §6, §7, §8

B. gladioli [11] = type: cell-based, Burkholderia gladioli; details: B. gladioli (15); 2-hour treatment
Procedure: as §1

[12] = A. dolens (15), 2-hour treatment
[13] = S. maltophilia (26), 2-hour treatment
[14] = B. multivorans (15), 2-hour treatment
[15] = A. xylosoxidans (15), 2-hour treatment
[16] = P. aeruginosa (28), 2-hour treatment
[17] = A. ruhlandii (15), 2-hour treatment

## M[dR]L[dK]MA[dR][dR][dR]Y[dR]LP[dR][dR][dR]S[dR][dR]LFS[dR]TAL[dR]MHP[dR]N[dR]L[dR][dR]IM[dR]GGI[dR]F [AM2]
A. dolens
  MBEC50: 4 µg/mL
  MBEC90: 8 µg/mL
  MBEC Range: 1 to 8 µg/mL
S. maltophilia [1]
  change in MIC over serial passage: no increase in MIC
S. maltophilia [2]
  MBEC50: 1 µg/mL
  MBEC90: 2 µg/mL
  MBEC Range: 0.125 to 4 µg/mL
  antibiofilm activity (MBEC) against S. maltophilia: highly active
B. multivorans
  MBEC50: 2 µg/mL
  MBEC90: 16 µg/mL
  MBEC Range: 1 to 16 µg/mL
A. xylosoxidans [3]
  MBEC50: 2 µg/mL
  MBEC90: 8 µg/mL
  MBEC Range: 0.125 to 32 µg/mL
A. xylosoxidans [4]
  effect of sputum on antibacterial activity: none of GN370, AM1, AM2, and AM3 was inhibited
A. xylosoxidans [4]; absence of sputum, 1 hr
  Log10 CFU/mL of sputum: 3.3 Log10 CFU/mL of sputum
A. xylosoxidans [4]; absence of sputum, 3 hr
  Log10 CFU/mL of sputum: 2.3 Log10 CFU/mL of sputum
A. xylosoxidans [4]; absence of sputum, 24 hr
  Log10 CFU/mL of sputum: 2.3 Log10 CFU/mL of sputum
A. xylosoxidans [4]; presence of 10% sputum, 1 hr
  Log10 CFU/mL of sputum: 2.3 Log10 CFU/mL of sputum
A. xylosoxidans [4]; presence of 10% sputum, 3 hr
  Log10 CFU/mL of sputum: 2.3 Log10 CFU/mL of sputum
A. xylosoxidans [4]; presence of 10% sputum, 24 hr
  Log10 CFU/mL of sputum: 2.3 Log10 CFU/mL of sputum
A. xylosoxidans [4]; time-kill
  killing by 1 hour, maintained at 24 hours: complete killing
A. ruhlandii [5]
  MIC50: 2 µg/mL
  MIC90: 16 µg/mL
M. avium
  MIC: 1 Tg/mL
P. aeruginosa [6]
  MBEC50: 0.25 µg/mL
  MBEC90: 1 µg/mL
  MBEC Range: 0.016 to 2 µg/mL
  antibiofilm activity (MBEC) against P. aeruginosa: highly active
M. fortuitum
  MIC: 4 µg/mL
M. scrofulaceum
  MIC: 16 µg/mL
P. aeruginosa [7]
  change in MIC over serial passage: no significant changes
A. ruhlandii [8]
  MBEC50: 8 µg/mL
  MBEC90: 32 µg/mL
  MBEC Range: 1 to 32 µg/mL
P. aeruginosa [9]
  effect of sputum on antibacterial activity: not inhibited
P. aeruginosa [9]; absence of sputum, 1 hr
  Log10 CFU/mL of sputum: 2.3 Log10 CFU/mL of sputum
P. aeruginosa [9]; absence of sputum, 3 hr
  Log10 CFU/mL of sputum: 2.3 Log10 CFU/mL of sputum
P. aeruginosa [9]; absence of sputum, 24 hr
  Log10 CFU/mL of sputum: 2.3 Log10 CFU/mL of sputum
P. aeruginosa [9]; presence of 10% sputum, 1 hr
  Log10 CFU/mL of sputum: 2.3 Log10 CFU/mL of sputum
P. aeruginosa [9]; presence of 10% sputum, 3 hr
  Log10 CFU/mL of sputum: 2.3 Log10 CFU/mL of sputum
P. aeruginosa [9]; presence of 10% sputum, 24 hr
  Log10 CFU/mL of sputum: 2.3 Log10 CFU/mL of sputum
P. aeruginosa [9]; time-kill
  killing by 1 hour, maintained by 24 hours: complete killing
Mycobacterium species
  activity (MIC) against Mycobacterium species: highest activity
B. gladioli [10]
  MIC50: 4 µg/mL
  MIC90: 8 µg/mL
B. gladioli [10]; in µg/mL
  MIC Range: 0.016-16

B1: GN370: lysin-AMP construct, SEQ ID NO: 149: MIDR, FIRL and NPTH moieties N-terminal to GN202 lysin (protein)
chain: MIDRFIRLNPTHGPRRPRRPGRRAPVRTSQRGIDLIKSFEGLRLSAYQDSVGVWTIGYGTTRGVTRYMTITVEQAERMLSNDIQRFEPELDRLAKVPLNQNQWDALMSFVYNLGAANLASSTLLDLLNKGDYQGAADQFPHWVNAGGKRLDGLVKRRAAERALFLEPLS
modifications: GN370 lysin
A. dolens; [12]
  MBEC50: 32 µg/mL
  MBEC90: 128 µg/mL
  MBEC Range: 4 to 128 µg/mL
S. maltophilia [1]
  change in MIC over serial passage: no increase in MIC
S. maltophilia [2]
  antibiofilm activity (MBEC) against S. maltophilia: highly active
S. maltophilia [2]; [13]
  MBEC50: 1 µg/mL
  MBEC90: 2 µg/mL
  MBEC Range: 0.064-4 ^ μg/mL
B. multivorans; [14]
  MBEC50: 8 µg/mL
  MBEC90: 64 µg/mL
A. xylosoxidans [3]; [15]
  MBEC50: 8 µg/mL
  MBEC90: >256 µg/mL
A. xylosoxidans [4]
  effect of sputum on antibacterial activity: none of GN370, AM1, AM2, and AM3 was inhibited
A. xylosoxidans [4]; absence of sputum, 1 hr
  Log10 CFU/mL of sputum: 3.7 Log10 CFU/mL of sputum
A. xylosoxidans [4]; absence of sputum, 3 hr
  Log10 CFU/mL of sputum: 3.3 Log10 CFU/mL of sputum
A. xylosoxidans [4]; absence of sputum, 24 hr
  Log10 CFU/mL of sputum: 2.3 Log10 CFU/mL of sputum
A. xylosoxidans [4]; presence of 10% sputum, 1 hr
  Log10 CFU/mL of sputum: 3.6 Log10 CFU/mL of sputum
A. xylosoxidans [4]; presence of 10% sputum, 3 hr
  Log10 CFU/mL of sputum: 3.3 Log10 CFU/mL of sputum
A. xylosoxidans [4]; presence of 10% sputum, 24 hr
  Log10 CFU/mL of sputum: 2.3 Log10 CFU/mL of sputum
A. xylosoxidans [4]; time-kill
  CFU reduction by 3 hours: ~2 log10
  CFU reduction by 24 hours: > 3 log10
A. ruhlandii [5]
  MIC50: 2 µg/mL
  MIC90: > 32 µg/mL
P. aeruginosa [6]
  antibiofilm activity (MBEC) against P. aeruginosa: highly active
P. aeruginosa [6]; MDR and XDR P. aeruginosa (9)
  MBEC50: 2 µg/mL
  MBEC90: 4 µg/mL
  MBEC Range: 1 to 4 µg/mL
  Number of isolates at MBEC 1 μg/mL: 4
  Number of isolates at MBEC 2 μg/mL: 4
  Number of isolates at MBEC 4 μg/mL: 1
P. aeruginosa [6]; [16]
  MBEC50: 1 µg/mL
  MBEC90: 2 µg/mL
  MBEC Range: 0.064-4 ^ μg/mL
P. aeruginosa [7]; P. aeruginosa (PA453)
  change in MIC over 28-day serial passage: No change
P. aeruginosa [7]; P. aeruginosa PA453, target organism of serial passage study
  MIC: 0.125 µg/mL
P. aeruginosa [7]
  change in MIC over serial passage: no significant changes
A. ruhlandii [8]; [17]
  MBEC50: 4 µg/mL
  MBEC90: 64 µg/mL
  MBEC Range: 4 to 64 µg/mL
P. aeruginosa [9]
  effect of sputum on antibacterial activity: not inhibited
P. aeruginosa [9]; absence of sputum, 1 hr
  Log10 CFU/mL of sputum: 2.3 Log10 CFU/mL of sputum
P. aeruginosa [9]; absence of sputum, 3 hr
  Log10 CFU/mL of sputum: 2.3 Log10 CFU/mL of sputum
P. aeruginosa [9]; absence of sputum, 24 hr
  Log10 CFU/mL of sputum: 2.3 Log10 CFU/mL of sputum
P. aeruginosa [9]; presence of 10% sputum, 1 hr
  Log10 CFU/mL of sputum: 3.9 Log10 CFU/mL of sputum
P. aeruginosa [9]; presence of 10% sputum, 3 hr
  Log10 CFU/mL of sputum: 3.6 Log10 CFU/mL of sputum
P. aeruginosa [9]; presence of 10% sputum, 24 hr
  Log10 CFU/mL of sputum: 2.3 Log10 CFU/mL of sputum
P. aeruginosa [9]; time-kill
  CFU reduction by 3 hours: 1.5 log10
  CFU reduction by 24 hours: > 3 log10
B. gladioli [10]
  MIC50: > 32 µg/mL
  MIC90: > 32 µg/mL
B. gladioli [11]
  MBEC50: 256 µg/mL
